In patent publication US6998254, “Use of ROR for receptors for screening substances useful for the treatment of atherosclerosis” (Merck Patent Gesellschaft):

Columns and labels:
Details in all cases: tags: TnT T7 reticulocyte lysate from pCMX-hRORα1
hRORα1 (RORA isoform 1) [1] = molecular target: T1, hRORα1 (RORA isoform 1) (Homo sapiens, UniProt P35398 P35398:1-523); experiment: competition; 10-100x excess does not compete
T1 sequence: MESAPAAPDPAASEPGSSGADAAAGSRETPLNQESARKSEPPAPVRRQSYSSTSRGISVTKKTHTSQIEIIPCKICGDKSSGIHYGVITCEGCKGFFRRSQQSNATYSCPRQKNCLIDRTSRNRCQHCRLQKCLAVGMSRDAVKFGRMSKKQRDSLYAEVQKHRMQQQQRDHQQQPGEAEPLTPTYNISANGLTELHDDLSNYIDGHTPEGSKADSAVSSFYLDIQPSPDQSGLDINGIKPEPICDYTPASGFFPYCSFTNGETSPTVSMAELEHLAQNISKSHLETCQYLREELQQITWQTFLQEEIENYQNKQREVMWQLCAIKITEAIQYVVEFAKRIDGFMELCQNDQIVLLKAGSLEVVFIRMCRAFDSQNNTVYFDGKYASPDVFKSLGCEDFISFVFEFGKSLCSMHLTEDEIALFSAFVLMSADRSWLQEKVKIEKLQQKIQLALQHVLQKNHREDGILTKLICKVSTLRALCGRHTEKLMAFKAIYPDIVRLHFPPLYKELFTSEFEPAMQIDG
Protocol: (§1) During the competition experiments, increasing concentrations of nonlabelled double-stranded oligo-nucleotides (molar excess of 10 to 100 fold) were added to the mixtures and incubated for 15 min at room temperature before the addition of the radioactive probes. After addition of the radioactive probes, the reticulocyte lysates were added to the mixture and incubated for 15 min at room temperature before the separation of the protein/DNA complexes by electrophoresis on a polyacrylamide gel (4%) in a 0.25× Tris-borate-EDTA buffer at room temperature (50).
In FIG. 7, the −198/+24 fragment of the promoter of the human gene for apo C-III was amplified by PCR with the aid of the primers 82 and 512 (Table 1) previously phosphoryiated at the 5' end by poly-nucleotide kinase in the presence of [γ-^32P]ATP. This probe was incubated in the presence of reticulocyte lysate (TNT-T7, Promega) programmed to express the hRORα1 receptor according to the protocol defined by the manufacturer or in the presence of control lysate. The DNA/protein complexes were then separated on a non denaturing polyacrylamide gel. After drying, the gel is subjected to autoradiography. The first lane of the gel corresponds to the migration of the probe alone. The second lane corresponds to the migration of the probe incubated in the presence of the control lysate. […]

hRORα1 (RORA isoform 1) [2] = molecular target: T1, hRORα1 (RORA isoform 1); experiment: competition; unlabelled competitor 10-100x
Protocol: as §1
In this figure, fragment −90/−64 of the promoter of the human gene for apo C-III was phosphorylated at the 5' ends with polynucleotide kinase in the presence of [γ-^32P]ATP. This probe was incubated in the presence of reticuloycte lysate ("TNT-T7", Promega) programmed to express the hRORα1 receptor according to the protocol defined by the manufacturer or in the presence of control lysate. The DNA/protein complexes were then separated on nondenaturing polyacrylamide gel. After drying, the gel is subjected to autoradiography. The first lane of the gel corresponds to the migration of the probe incubated in the presence of control lysate. The other lanes correspond to the migration of the probe incubated in the presence of lysate programmed to express hRORα1. […]

hRORα1 (RORA isoform 1) [3] = molecular target: T1, hRORα1 (RORA isoform 1); experiment: competition; unlabelled competitor 10-100x; remark: listed apart in the source

B1: hCIIITaTaKO (-33/-10) (dsDNA)
DNA 1: GATCGATATAAAACAGGCAGGAACCCTC
DNA 2: GATCGAGGGTTCCTGCCTGTTTTATATC
binding result (hRORα1 (RORA isoform 1) [1]): no binding

B2: RORECons (dsDNA)
DNA 1: GATCTTGACCTACATTCTAAGCTG
DNA 2: GATCCAGCTTAGAATGTAGGTCAA
binding result (hRORα1 (RORA isoform 1) [2]): binds

B3: rAITaTaWT (-36/-12) (dsDNA)
DNA 1: GATCCACACATATATAGGTCAGGGAAGAAGA
DNA 2: GATCTCTTCTTCCCTGACCTATATATGTGTG
binding result (hRORα1 (RORA isoform 1) [3]): binds
